T1: cynomolgus monkey PD1 human Fc tagged recombinant protein (cynomolgus monkey, UniProt Q15116 25-170 (human entry), limits assumed)
T1 construct: also called cyPD1-Fc; cyPD-1-Fc; not shown: human Fc tag
T1 chain: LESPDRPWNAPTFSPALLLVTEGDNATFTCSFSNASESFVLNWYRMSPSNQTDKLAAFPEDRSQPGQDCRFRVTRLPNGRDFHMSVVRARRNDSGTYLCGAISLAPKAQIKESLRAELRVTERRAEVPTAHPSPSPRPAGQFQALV

T2: cynomolgus monkey PD1 His tag (monomeric) (cynomolgus monkey, UniProt Q15116 25-170 (human entry), limits assumed)
T2 construct: Soluble monomeric analyte; whole entry named; also called monomeric cyno PD1; not shown: His tag
T2 chain: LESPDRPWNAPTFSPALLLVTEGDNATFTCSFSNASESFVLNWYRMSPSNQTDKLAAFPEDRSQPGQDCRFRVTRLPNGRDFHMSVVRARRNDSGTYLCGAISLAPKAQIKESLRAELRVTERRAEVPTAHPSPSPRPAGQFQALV

T3: human ULBP2 (UL16 binding protein 2) on transfected HEK293 cells (human, UniProt Q9BZM5 26-217)
T3 sequence: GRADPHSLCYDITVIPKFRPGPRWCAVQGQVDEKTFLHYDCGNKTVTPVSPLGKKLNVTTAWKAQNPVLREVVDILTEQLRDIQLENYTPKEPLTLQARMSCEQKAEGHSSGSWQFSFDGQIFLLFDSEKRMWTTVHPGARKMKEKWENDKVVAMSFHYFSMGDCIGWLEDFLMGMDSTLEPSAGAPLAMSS

T4: cyno PD1 expressed on CHO-K1 cells (cynomolgus monkey, UniProt Q15116 25-288 (human entry))
T4 construct: also called cyno PD1+ CHO cells
T4 chain: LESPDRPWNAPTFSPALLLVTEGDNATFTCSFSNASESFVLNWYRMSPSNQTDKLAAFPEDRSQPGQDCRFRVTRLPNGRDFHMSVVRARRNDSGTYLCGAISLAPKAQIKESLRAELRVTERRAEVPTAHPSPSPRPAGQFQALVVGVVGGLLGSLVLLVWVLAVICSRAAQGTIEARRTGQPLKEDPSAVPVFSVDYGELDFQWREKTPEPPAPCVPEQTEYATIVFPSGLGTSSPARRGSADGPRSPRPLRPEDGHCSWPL


Key:
[1] = target: T5, human PD1 human Fc tagged recombinant protein (human, UniProt Q15116 25-170, limits assumed); experiment: direct ELISA, Fab on coated PD1-Fc
T5 construct: also called huPD1-Fc; huPD-1-Fc; not shown: human Fc tag
T5 sequence (Q15116 25-170 limits assumed): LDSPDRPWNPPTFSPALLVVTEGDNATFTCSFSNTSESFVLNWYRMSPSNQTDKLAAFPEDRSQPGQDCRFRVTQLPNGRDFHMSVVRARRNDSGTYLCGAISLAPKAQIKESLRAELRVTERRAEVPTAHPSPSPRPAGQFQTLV
Experimental: (§1) Binding and cross-reactivity of the lead panel to the recombinant proteins was initially assessed by binding ELISA. The human PD1 human Fc tagged recombinant protein and the cynomolgus monkey PD1 human Fc tagged recombinant protein were coated to the surface of MaxiSorp™ flat-bottom 96 well plate at 1 μg/ml. […] The Fabs were detected using mouse anti-c-myc antibody followed by donkey anti-mouse IgG conjugated to horseradish peroxidase. The IgGs were detected using the mouse anti-human IgG conjugated to horseradish peroxidase. Binding signals were visualized with 3,3′,5,5′-Tetrannethylbenzidine Substrate Solution (TMB) and the absorbance measured at 450 nm.
(§2) The top 12 clones were also expressed as Fab protein from E. coli expression, purified to homogeneity, quantified, and applied in direct ELISA binding analyses on human PD1-Fc and cyno PD1-Fc (FIGS. 2A&B, Table 5).

[2] = target: T1, cynomolgus monkey PD1 human Fc tagged …; experiment: direct ELISA, Fab on coated PD1-Fc
Experimental: as §1, §2

[3] = target: T6, biotinylated human PD1-His/AviTag (human, UniProt Q15116 25-170, limits assumed, biotinylated); experiment: Alphascreen competition vs IgG1-Mab005 (humanized)
T6 construct: Alphascreen antigen; whole entry named; also called biotinylated monomeric human PD1; not shown: His/AviTag
T6 sequence (Q15116 25-170 limits assumed): as above
Experimental: The AlphaScreen assay (Perkin Elmer) was performed in a 25 μl final volume in 384-well white microtiter plates (Greiner). The reaction buffer contained 1×PBS pH 7.3 (Oxoid, Cat. nr. BRO014G) and 0.05% (v/v) Tween® 20 (Sigma, Cat. nr. P9416). Purified IgG samples were titrated in three fold serial dilutions starting at 500 nM final concentration and incubated with biotinylated human PD1-His/AviTag at 0.6 nM final concentration for 20 minutes at room temperature. […] Followed by addition of the Streptavidin Donor beads at 20 μg/ml (final concentration) and incubation for 30 minutes at room temperature. The emission of light was measured in the EnVision multilabel plate reader (Perkin Elmer) and analysed using the EnVision manager software. Values were reported as Counts Per Second (CPS) and corrected for crosstalk.

[4] = target: T2, cynomolgus monkey PD1 His tag …; experiment: SPR (Biacore), IgG captured, monomeric PD1-His analyte
Experimental: (§3) Affinity (KD) of purified IgGs was determined via SPR with antigen in-solution on a Biacore 3000 (GE). A mouse anti-human antibody (CH1 specific) was immobilized on a CM5 Sensor Chip to a level of 2000 RU in acetate buffer at pH 4.5 using amine coupling following the Wizard instructions for two channels. One channel was used for background signal correction. The standard running buffer HBS-EP pH 7.4 was used. Regeneration was performed with a single injection of 10 μl of 10 mM Glycine at pH 1.5 at 20 μl/minute. IgG samples were injected for 2 minutes at 50 nM at 30 μl/min followed by and off-rate of 60 seconds. […] The obtained sensorgrams were analysed using the Biacore 3000 evaluation (BIAevaluation) software. The KD was calculated by simultaneous fitting of the association and dissociation phases to a 1:1 Langmuir binding model.
(§4) Biacore analyses of binding affinity was performed for all IgGs to solution-phase, monomeric human and cyno PD1 proteins.

[5] = target: T7, human PD1 His tagged (monomeric) (human, UniProt Q15116 25-170, limits assumed); experiment: as above
T7 construct: Soluble monomeric analyte; whole entry named; also called monomeric human PD1; not shown: His tag
T7 sequence (Q15116 25-170 limits assumed): as above
Experimental: as §3, §4

[6] = target: T8, human PD1 expressed on cells (human, UniProt Q15116 25-288); experiment: cell-based or functional assay
T8 sequence (Q15116 25-288 limits assumed): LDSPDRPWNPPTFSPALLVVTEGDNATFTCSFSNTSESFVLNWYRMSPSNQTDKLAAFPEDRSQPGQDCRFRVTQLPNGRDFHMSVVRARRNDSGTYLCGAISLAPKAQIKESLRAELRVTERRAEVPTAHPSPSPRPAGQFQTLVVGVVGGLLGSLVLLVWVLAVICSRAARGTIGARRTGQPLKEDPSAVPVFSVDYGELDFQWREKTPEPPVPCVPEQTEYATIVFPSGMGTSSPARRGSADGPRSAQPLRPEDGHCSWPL

[7] = target: T5, human PD1 human Fc tagged recombinant …; experiment: direct ELISA, IgG1null on coated PD1-Fc
Experimental: as §1
(§5) The purified IgGs described above were then tested for binding to human and cyno PD1-Fc in direct titration ELISA format. […] As the ELISA EC50 values for directly binding IgGs are strongly influenced by avidity, rather than true 1:1 binding affinity, we then proceeded to perform higher-sensitivity, solution-phase epitope competition and Biacore binding affinity determinations, as outlined below.

[8] = target: T1, cynomolgus monkey PD1 human Fc tagged …; experiment: direct ELISA, IgG1null on coated PD1-Fc
Experimental: as §1, §5

[9] = target: T3, human ULBP2 (UL16 binding protein 2) on …; experiment: cell microarray re-array, transfected HEK293
Experimental: (§6) Antibody binding was detected using AF647 fluorescent secondary anti-human IgG1 antibody. Primary hits (duplicate spots) were identified by analysing fluorescence (AF647 and ZsGreen1) on ImageQuant. Vectors encoding all hits were sequenced to confirm their correct identities. […] Slides were analysed as above. Flow cytometry confirmation screen: Expression vectors encoding ZsGreen1 only, or ZsGreen1 and PD1, FZDS, KDR or ULBP2, were transfected into human HEK293 cells. Each live transfectant was incubated with […] of each of the test antibodies and the Isotype control antibody. Cells were washed, and incubated with the same AF647 anti-human IgG Fc detection antibody as used in the cell microarray screens. Cells were again washed, and analysed by flow cytometry using an Accuri flow cytometer (BD). A 7AAD live/dead dye was used to exclude dead cells, and ZsGreen1-positive cells (i.e. transfected cells) were selected for analyses.

[10] = target: T9, human KDR (VEGFR2) on cells (human, UniProt P35968 20-1356); experiment: cell microarray re-array, transfected HEK293
T9 construct: Transfected HEK293 cells (arrays, flow cytometry) and human VEGFR2 reporter cells
T9 sequence (P35968 20-1356 limits assumed): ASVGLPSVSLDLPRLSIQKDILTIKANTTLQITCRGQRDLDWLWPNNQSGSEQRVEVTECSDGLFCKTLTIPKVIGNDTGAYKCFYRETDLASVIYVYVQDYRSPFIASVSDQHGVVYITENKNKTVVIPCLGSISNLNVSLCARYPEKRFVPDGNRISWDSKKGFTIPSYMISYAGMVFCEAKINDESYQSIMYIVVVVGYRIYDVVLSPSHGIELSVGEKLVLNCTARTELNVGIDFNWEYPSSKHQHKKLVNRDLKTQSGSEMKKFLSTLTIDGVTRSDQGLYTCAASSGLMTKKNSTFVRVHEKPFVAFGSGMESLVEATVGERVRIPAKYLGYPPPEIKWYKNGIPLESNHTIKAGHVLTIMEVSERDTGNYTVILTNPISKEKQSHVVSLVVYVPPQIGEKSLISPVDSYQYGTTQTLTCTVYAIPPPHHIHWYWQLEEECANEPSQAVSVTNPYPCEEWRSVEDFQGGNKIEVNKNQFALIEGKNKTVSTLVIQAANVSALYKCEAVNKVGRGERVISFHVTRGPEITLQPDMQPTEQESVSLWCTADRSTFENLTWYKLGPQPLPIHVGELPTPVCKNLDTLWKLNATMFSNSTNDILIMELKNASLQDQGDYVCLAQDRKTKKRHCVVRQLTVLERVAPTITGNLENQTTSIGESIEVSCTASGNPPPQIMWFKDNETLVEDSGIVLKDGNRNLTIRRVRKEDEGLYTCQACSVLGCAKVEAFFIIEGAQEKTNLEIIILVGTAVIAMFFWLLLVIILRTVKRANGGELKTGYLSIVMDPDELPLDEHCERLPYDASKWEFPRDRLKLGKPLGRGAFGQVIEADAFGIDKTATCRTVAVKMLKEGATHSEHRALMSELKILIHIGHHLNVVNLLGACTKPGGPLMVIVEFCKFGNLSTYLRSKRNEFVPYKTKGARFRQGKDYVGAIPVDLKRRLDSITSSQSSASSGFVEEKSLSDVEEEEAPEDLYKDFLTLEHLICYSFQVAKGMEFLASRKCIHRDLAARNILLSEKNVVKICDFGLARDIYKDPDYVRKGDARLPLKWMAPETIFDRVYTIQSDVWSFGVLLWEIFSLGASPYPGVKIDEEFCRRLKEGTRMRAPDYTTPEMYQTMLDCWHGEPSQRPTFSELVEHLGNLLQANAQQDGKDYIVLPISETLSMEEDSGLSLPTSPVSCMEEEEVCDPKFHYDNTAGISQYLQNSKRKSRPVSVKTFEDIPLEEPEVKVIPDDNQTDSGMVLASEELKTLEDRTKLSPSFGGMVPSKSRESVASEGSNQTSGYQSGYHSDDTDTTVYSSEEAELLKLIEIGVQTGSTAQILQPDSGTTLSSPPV
Experimental: as §6

[11] = target: T10, human FZD5 (frizzled class receptor 5) on transfected HEK293 cells (human, UniProt Q13467 27-585); experiment: cell microarray re-array, transfected HEK293
T10 construct: also called FZDS; FZ5
T10 sequence (Q13467 27-585 limits assumed): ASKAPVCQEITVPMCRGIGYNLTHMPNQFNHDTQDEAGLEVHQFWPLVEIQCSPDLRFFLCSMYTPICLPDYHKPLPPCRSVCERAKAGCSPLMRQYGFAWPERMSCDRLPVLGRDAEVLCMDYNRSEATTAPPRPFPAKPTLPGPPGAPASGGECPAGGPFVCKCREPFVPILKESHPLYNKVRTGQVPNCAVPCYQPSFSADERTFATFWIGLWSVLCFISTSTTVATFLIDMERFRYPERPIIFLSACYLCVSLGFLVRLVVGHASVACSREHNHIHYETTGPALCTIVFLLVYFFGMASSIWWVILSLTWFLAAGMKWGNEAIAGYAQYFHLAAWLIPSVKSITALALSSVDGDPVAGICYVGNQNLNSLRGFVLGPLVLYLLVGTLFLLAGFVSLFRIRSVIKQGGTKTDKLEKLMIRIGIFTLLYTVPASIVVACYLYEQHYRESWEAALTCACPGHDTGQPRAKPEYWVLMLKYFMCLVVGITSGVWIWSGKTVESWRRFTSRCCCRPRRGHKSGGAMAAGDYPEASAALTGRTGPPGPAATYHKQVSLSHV
Experimental: as §6

[12] = target: T8, human PD1 expressed on cells; experiment: flow cytometry, PD1 CHO-K1 cells
Experimental: (§7) Purified IgGs were tested in FACs for binding to human and cyno PD1 expressed on CHO-K1 stable cell lines and CHO-K1 wild-type cells. […] Binding of IgGs was detected with a mouse anti-human IgG conjugated to FITC. Results were analyzed by examining the Mean Fluorescence Intensity (MFI) of 10000 cells per sample in the BL-1 channel detector of a flow cytometer (Attune™ NxT Acoustic Focusing Cytometer, Invitrogen/ThermoFisher Scientific).
(§8) Antibodies to PD1 were analysed for concentration-dependent binding at the cell surface via flow cytometry. Initial analyses were performed on CHO cells stably-transfected with human or cyno PD1.

[13] = target: T4, cyno PD1 expressed on CHO-K1 cells; experiment: flow cytometry, PD1 CHO-K1 cells
Experimental: as §7, §8

[14] = target: T5, human PD1 human Fc tagged recombinant …; experiment: direct ELISA, IgG1null on coated PD1-Fc; remark: listed apart in the source
Experimental: as §1, §5

[15] = target: T1, cynomolgus monkey PD1 human Fc tagged …; experiment: direct ELISA, IgG1null on coated PD1-Fc
Experimental: as §1, §5

Binder | EC50 [1] | EC50 [2] | IC50 [3] | Kd [4] | koff [4] | kon [4] | Kd [5] | koff [5] | kon [5] | EC50 (ng/ml), IgG1null blockade of human PD1/PD-L1 [6] | EC50 [7] | EC50 [8] | binding result [9] | binding result [10] | binding result [11] | EC50 [12] | EC50 [13] | EC50 [14] | EC50 [15]
Fab06D02 (Fab, V domains shown, Human Fab from E. coli, His/c-myc tags) VH: EVQLVESGGGLVQPGGSLRLSCAASGFTFSSYLMSWVRQAPGKGLEWVATISGGGSETYYVDSVKGRFTISRDNAKNSLYLQMNSLRAEDTAVYYCARQLYGFDYWGQGTLVTVSS VL: not shown | 0.743 nM | 1.01 nM |  |  |  |  |  |  |  |  |  |  |  |  |  |  |  |  | 
Fab12H04 (Fab, V domains shown, Human Fab from E. coli, His/c-myc tags) VH: EVQLVESGGGLVQPGGSLRLSCAASGFTFSSYLMSWVRQAPGKGLEWVATISGGGAEKYYVDSVKGRFTISRDNAKNSLYLQMNSLRAEDTAVYYCARQLYGFDYWGQGTLVTVSS VL: not shown | 0.708 nM | 1.4 nM |  |  |  |  |  |  |  |  |  |  |  |  |  |  |  |  | 
IgG1-11 (antibody, V domains shown, Designer; human IgG1null + Ckappa; also called Antibody IgG1-11) VH: EVQLVESGGGLVQPGGSLRLSCAASGFTFSSYLMSWVRQAPGKGLEWVATISGGGSEKYYVDSVKGRFTISRDNAKNSLYLQMNSLRAEDTAVYYCARQLYFFDYWGQGTLVTVSS VL: not shown |  |  | 1.41 nM | 7.1 nM | 0.00073 s⁻¹ | 100000 M⁻¹ s⁻¹ | 3.01 nM | 0.0004 s⁻¹ | 130000 M⁻¹ s⁻¹ | 172 ng/mL | 0.0492 nM | 0.0498 nM | no binding (tested: 5 µg/ml) | no binding (tested: 5 µg/ml) | no binding (tested: 5 µg/ml) | 0.978 nM | 0.861 nM |  | 
IgG1-12H04 (antibody, V domains shown, Library-derived; human IgG1null + Ckappa) VH: EVQLVESGGGLVQPGGSLRLSCAASGFTFSSYLMSWVRQAPGKGLEWVATISGGGAEKYYVDSVKGRFTISRDNAKNSLYLQMNSLRAEDTAVYYCARQLYGFDYWGQGTLVTVSS VL: not shown |  |  | 4.01 nM | 4.7 nM | 0.00064 s⁻¹ | 140000 M⁻¹ s⁻¹ | 1.6 nM | 0.00032 s⁻¹ | 200000 M⁻¹ s⁻¹ | 188 ng/mL |  |  |  |  |  | 1.95 nM | 2.17 nM | 0.112 nM | 0.12 nM
IgG1-14 (antibody, V domains shown, Designer; human IgG1null + Ckappa; also called Antibody IgG1-14) VH: EVQLVESGGGLVQPGGSLRLSCAASGFTFSSYLMSWVRQAPGKGLEWVATISGGGSEKYYVDSVKGRFTISRDNAKNSLYLQMNSLRAEDTAVYYCARQLYAFDYWGQGTLVTVSS VL: not shown |  |  | 3 nM | 6.9 nM | 0.00097 s⁻¹ | 140000 M⁻¹ s⁻¹ | 2.57 nM | 0.00046 s⁻¹ | 180000 M⁻¹ s⁻¹ | 212 ng/mL | 0.125 nM | 0.0959 nM | no binding (tested: 5 µg/ml) | no binding (tested: 5 µg/ml) | no binding (tested: 5 µg/ml) | 1.87 nM | 1.33 nM |  | 
Fab-Mab005 (Fab, V domains shown, Purified monomeric human Fab from E. coli, His tag, detected by c-myc; also called Mab005 (humanized) Fab) VH: EVQLVESGGGLVQPGGSLRLSCAASGFTFSSYMMSWVRQAPGKGLEWVATISGGGANTYYPDSVKGRFTISRDNAKNSLYLQMNSLRAEDTAVYYCARQLYYFDYWGQGTTVTVSS VL: DIQMTQSPSSLSASVGDRVTITCLASQTIGTWLTWYQQKPGKAPKLLIYTATSLADGVPSRFSGSGSGTDFTLTISSLQPEDFATYYCQQVYSIPWTFGGGTKVEIK | 1.25 nM |  |  |  |  |  |  |  |  |  |  |  |  |  |  |  |  |  | 
